Reference: article PMC12819142, “Atomic models of the Toxoplasma cell invasion machinery” (Nature Structural & Molecular Biology, 2025)

B1: SAS6L (natural protein)
chain: MATNFGFGGGASGCTDSVNFLAQVDTSAIDEMDPSLADGHTLVYSREVPFEIRLQETGSSLPGDVGRLEPIRVKILILGEETNPQHVRVELTSENDLFLNYTHALNEDLFRQMQERQKLMIEFGDYPSVLIKMLNSCIKEPHCFLAVLIMHTNGKARLDFIQSMEYKFIELLCLDCVQSTEEFTRRDMTFRYNALKSKLALLQARLHDIGCLLKLKSPSLLLHLQKAAQQQAHRRQQQVAAAAPIPGKLRAPGTTEGASTRFL
notes: source: endogenous, isolated conoids of T. gondii tachyzoites (CHAPS lysis, sonication, α-chymotrypsin)
B2: CF1 (natural protein)
chain: MQPLAREVSRLPRSGPLGPVAAKKDDKTFIPTNVRVSPGEKNDRVVKTEKIDDSTDGSGSHDGPRNLETQLEALTREVRELTLRVQEEKEMKELLNSQLNDAYEELADARSEHRVRGFAGASGARLRGVRGLPAFEARWMEPEHPTAQTAIRSQQEFELLLQEERARRHTMFEQYERHMKVMRKNHHKEKLETKKKVLSQVEFLIKKYRRLASDAVAVAKRERERVAEERKRARELAERACKNFEADLKGRTKTALEQYRRLVQEAHTAAKQEREELHNKCKELQETVDNERREFDTLIVREAEAKMAKFRASYARMKQQTEEERRQYGVMMHEIAKRVEKECAEYEEFVIRTMRDLLQSKGVEMTESGLRDFFQKKREEMRPSGEGHSSTDGLVTVKYRFQAADPEDLQ
notes: as for B1
B3: ICMT-associated protein 1 (ICMAP1) (natural protein)
chain: MMADLTLEPRGAGASRYLMTDLEDLDSSEGNSLVPYSRLGKSGNTDANLYSTPDMTTRYPGSRGLLRDDSRGSGGLDDPMGLPMRSLSPKDLGGRGGPRLSPAELKAQVRLRNMCGKPLRPDDVLVTRILTGEKSYWEALDEMRNLCASLTVENEKLKTGNAKATTKALEVEQKSRAEIRRLQTLQRVTRDELEMKLQDLTAENVRLRQSRDVERALQEQKVHMQKQIERLKQDSEEKGRLAAQRAREIHHLKEETQRSTDEAEALKGRVESLQAKLAEAISQKNLLLIRVKKDIRDIQDSAQQAREAVLAEKARSEQQAAEVEKHAQMQLQLHERKIRDLQQTVASEESQGEYYRRKYEEASKQLAKLKTQFDSTQNKTETDIALRERKLQELSESLNAAQKARDRSAQELNAMRSKYNILRGELEKAEQRRNHAEQEAIRAGAQVETMDVGRSTLEAKVSELQLERSGLMEKLQLAEKEVSELREAKNKIKASLDLAYQKEQFRLLEENSRIGTDLKVAQQQLDTVTRQKEQLQTDAERLRGAEEELREMQVDFLKMKTTLQLVQGRPCDNAKVVADGVVNALRAYAELKKATETQEQSMASLSQQNQALSQKANEAATLTREMLTLESENRSLNEHIASLTAELRKIGDQQTALQLEKEAQDEAFRQQIERVQKEAEARRRELDHQLEQAKERHRQETTKLTAELDRVKKLHDAEKKRTSELQVQVEDVKAEATQHTEGLEKRYQEQLRERNAQIEALSSEREEFAAETRAEIQQLKKTHADALKAARADRDKVLAERESHYQQQLEEMRTRQEQHAASQHHQRQELQQRLQQLELSFQETEANLRREVDAKAADVRSLQGQKEKLERELGAVKERLEDEQRSADRNLERVKRERQQDVERLQKELDDATRLAAEAERTAAEKIQSLETDVKNTRDQLKKANAGSEEKESLLEASKTRYADLENKHNDVVQKFNDLSEENKKLKKDLSAAADDKEAKEKQIKKLTDAQARDQQEIAAIKQKEREAIAAGDRLNAEIEKLKAEHRSAELKLKNDIDAVTTDKEAVEAKLAQVQKMHKEEAEALNSRIAQLTKEKADLEKAQRNLEEEKAALEQEKRKAASEAKVKQDLLEQKIAELQKQNQNLENGLRAAKAAGAAAAARPAPGAPGQAPPAAQAPQAGAPPAEEGGLFSWWGGGAAEAPPEAPASSAGAPAEAAPAPAAEAESSSWGWW
notes: as for B1
B4: ICMAP2 (natural protein)
chain: MVTFKSGEVDEHHESFLRREPRSPSRSPSAVQSSWKPVCYIEEIDSLTTFPSSASCDSSSKTKSSRSLISTSLDQPRDSASSSSEPRQSGLLHVNAQDLSPSRPPESLYQTGYVRSPSSFDGTLSCVGEKTGVVRGKSGHPPLSFRSPRMQSVAHSEDRDRKGLTYSFDAYPPEVFSRWKGRSRTGESCGLVTSSRGRSPCSRSPPGRSFPRCVDPQTDRIEEASQNCLPQSSELHASEVLGPADPAACPTQKPTVEPDSSVAASVFCPGTQAESQQVPSLPTDAFSGGDPVRSQVGSKRSHLLEDIQGKTRCSAARAVIDFDASGIRSVVVSDLGGTPLRLSPYLDTLPRSNHPLVLSKAATSVPPYCSSSSENFSEARQGGESRLTGGAAPEGGKLKASAVLGGNPQPRSCPSGGTQAMGGKYQAEESPTRSVFRGKVTVPAAEVHTTQAAGCPSERKVGEFRCQTDTDTLRHFRKSLRSYSDSPKRPETNSLNQGRSGSSRIIGQLSDATFGCRDSMASVRGAFAPPTSTVSKSLRHDEAVLREQGIKVRQKDAIFLKGVEKRHLGMQAGRQDSKPRYGLESAASCNATGAGEDPSPGFRIAGRASSSICAGGSSGESMNSAFMRGLPGSASNVRLPQWMRDYGVEDPSLQTDGCSRNVVSTRHPGTCQYSSADARRPRMRVSAGAPANLTPYLWDENSDRDGDNSLEDISCGPPYRGEMTYSITHSGNSGNQLSSQLPPAPLSVPGDVGSFGFPVAHFVCSNCGATAVPPQCPTCGAVIVQFDGTTQIPVAYRTNGTDALGLASRAVLRNGDSRSVQFSGEADPQSRSYAPYDASPSRSRGPSASRRSHVHSSRQERRELSRGEAETERCTAGTARRSGMVAVTAKKSGPPSRQRLVASSGPSLPSTKKLASQVWGSPRVCAILCSFLGLPQLLTIRRCSKNLLVAAQFEMRYVLYGTLQQLLREEETSKKATSSRPKSCEPPSARNREGRGRTLTPGVASTASARDRSLPACPFNAQTLTRLLELSPAELTALKNGQLPDRRVADAKTPRPEELRARASRLRRLHAERVEEQRRRVSARTSGKRVDREATEPVLVGLDEEMQLRREMQLQHEEELLMRERRLQQQECELFKKQQEIWLQETQQRLRQNITRNGRPHFAVPEPAALSGAGASFPCAHPGGWQKRHVGFDDDLVKGPEIDYESEPPSFRRLRHSFLKLWNYNEAQFKAALYRHAFSSFPAYNYDTTAILCRCIYQLCADATSALPLNSILMLLTDRQSYLWRRMARLSGYVICSFTLNGCRREIGPSMPTTIQRVVPIPLDDGCWDGGRSRGSHRATPSRGRGGASRVGREFGDDSSEDPIPPFCWKEGIRGAVLESIELKLAKLSEEFIDEFVLYGRQQGLLLQLQGADSTVNGRLLATTLRRFCKQPEDRYVLMDLYEWLAAAMTFSQKCIKAKIEAAKRASPSPQCRIARPCTGRLQAFPPYERSEGRYGGRSTTPAFGSSVRGRSGCPGRVETPGATSAMTRGRSIARVSMGARRGVVEDSVHSIAYENALSSRTKSRERHADTPTRSRLVLRGNRAADFQRPVRGRSPDSSANHTGVFGRRSDGKLSTQSGVRSSSASRSRLTNQVSSGLTAREAAALCRLLQNQGKILEEVKQILNNMSAPGRRHTRVP
notes: as for B1

Tests used:
[1] = target: the molecule itself; test: cryo-EM structure; conoid fibers (CF), native, from isolated T. gondii conoids after sonication and α-chymotrypsin; single-particle analysis, 2.9 Å (8-nm repeat) and 3.1 Å (24-nm repeat)
[2] = target: the molecule itself; test: cryo-EM structure; intraconoidal microtubule ICMT-1, native, from isolated T. gondii conoids; single-particle analysis, 3.3 Å

| Protein | stoichiometry N [1] | stoichiometry N [2] |
| --- | --- | --- |
| B1 | 2 |  |
| B2 | 2 |  |
| B3 |  | 2 |
| B4 |  | 2 |
